Laboratory results as given in US6780974B2, “Synthetic DNA encoding an orange seapen-derived green fluorescent protein with codon preference of mammalian expression systems and biosensors” (Cellomics, Inc., priority 2001, dated 2004).

Tests used:
Assay type in all cases: cell-based
[1] = test system: HEK293 cells; assay: Percentage of hPtFP-positive cells in stably transfected HEK293 mixed population during passage (growth / toxicity); details: for toxicity to host cells: stably transfected mammalian host cells (HEK293)
Experimental: The cells were co-transfected with the hPtFP construct and pSV2-neo (Cat #37149, ATCC, Manassas, Va., USA) with FUGENE 6 transfection reagent (Roche Molecular Biochemicals, Indianapolis, Ind., USA) following the manufacturer's instructions. Two days after transfection, cells were treated with 0.4 mg/ml (milligram/milliliter) G418 in normal growth medium. After treating with G418 for two weeks, drug resistant cells were isolated or pooled. A mixture of stably transfected HEK293 mixed population (in which about 30% of the cells expressing hPtFP of this invention) were plated out in 96 cell micro plates. After 2, 4, or 6 days incubation, the cells were fixed with 3.7% formaldehyde for 20 minutes at room temperature (25° Centigrade). The percentage of positive cells was quantitated with ARRAYSCAN II instrument, as described herein.
To compare the growth rates of cells expressing or not expressing hPtFP, a mixture of stably transfected HEK293 mixed population (in which about 30% of the cells expressing hPtFP of this invention) were plated out in 96-well micro plates. After 2, 4, or 6 days incubation, the cells were fixed with 3.7% (percent) formaldehyde for twenty minutes at room temperature (25 degrees Centigrade). The percentage of positive cells was quantitated with ARRAYSCAN II instrument, as described herein.

[2] = test system: COS1 cells; assay: Fluorescence of COS1 cells transiently transfected with humanized versus wild type PtFP DNA (ARRAYSCAN II); details: transient transfection
From the text: The difference at the nucleotide level (versus codon level) is that the hPtFP open reading frame (including the stop codon) contains 720 nucleotides, whereas the PtFP open reading frame (including the stop codon) contains 717 nucleotides. It will be appreciated by those skilled in the art, that without counting the extra valine introduced into hPtFP of the present invention, there are 166 nucleotide differences between the 717 nucleotides compared, or 23.15 percent difference (or 76.85% identity). If the stop codon is excluded in this comparison, there are 165 nucleotide differences in the 714 nucleotides compared, or 23.10 percent difference (or 76.9% identity). […]
To compare the expression of wild type Ptilosarcus gurneyi fluorescent protein DNA with humanized Ptilosarcus gurneyi green fluorescent protein synthetic DNA as described above, an expression vector for the wild type Ptilosarcus gurneyi DNA was constructed by cloning the wild type PtFP into the expression vector M2, and thus, these two expression vectors under comparison differed only in their coding regions. […] The purified DNA preps were quantitated by reading the optic absorption at 260 nm (nanometers) with a HP8453 UV—visible spectrophotometer (Agilent Technologies, Palo Alto, Calif., USA) and calculated based on 1 O.D.=[…] DNA. […]

[3] = test system: COS1 cells; assay: In situ absorption and emission spectra of live COS1 cells expressing hPtFP; details: in COS-1 cells
Experimental: Forty-eight hours after initial transfection with the synthetic green fluorescent protein DNA of the present invention, COS1 cells were trypsinized and were kept in suspension. The absorption and emission spectra of the live cells expressing the hPtFP of the present invention were then measured, as shown in FIG. 2.

B1: hPtFP DNA: synthetic DNA encoding hPtFP with codons favored for mammalian expression systems (nucleic acid)
DNA: AAGCTTGCCACCATGGTGAACCGGAACGTGCTGAAGAACACCGGCCTGAAGGAGATCATGAGCGCCAAGGCCAGCGTGGAGGGCATCGTGAACAACCACGTGTTCAGCATGGAGGGCTTCGGCAAGGGCAACGTGCTGTTCGGCAACCAGCTGATGCAGATCCGGGTGACCAAGGGCGGCCCTCTGCCCTTCGCCTTCGACATCGTGAGCATCGCCTTCCAGTACGGCAACCGGACCTTCACCAAGTATCCCGACGACATCGCCGACTACTTCGTGCAGAGCTTCCCTGCCGGCTTCTTCTACGAGCGGAACCTGCGGTTCGAGGACGGCGCCATCGTGGACATCCGGAGCGACATCAGCCTGGAGGACGACAAGTTCCACTACAAGGTGGAGTACCGCGGCAACGGCTTCCCTAGCAACGGCCCTGTGATGCAGAAGGCCATCCTGGGCATGGAGCCCAGCTTCGAGGTGGTGTACATGAACAGCGGCGTGCTGGTGGGCGAGGTGGACCTGGTGTACAAGCTGGAGAGCGGCAACTACTACAGCTGCCACATGAAGACCTTCTACCGGAGCAAGGGCGGCGTGAAGGAGTTCCCTGAGTACCTATTCATCCACCACCGGCTGGAGAAGAACTACGTGGAGGAGGGCAGCTTCGTGGAGCAGCACGAGACCGCCATCGCCCAGCTGACCACCATCGGCAAGCCTCTGGGCAGCCTGCACGAGTGGGTGTAAAGCGGCCGCAAGCTTGCCACCATGGTGAACCGGAACGTGCTGAAGAACACCGGCCTGAAGGAGATCATGAGCGCCAAGGCCAGCGTGGAGGGCATCGTGAACAACCACGTGTTCAGCATGGAGGGCTTCGGCAAGGGCAACGTGCTGTTCGGCAACCAGCTGATGCAGATCCGGGTGACCAAGGGCGGCCCTCTGCCCTTCGCCTTCGACATCGTGAGCATCGCCTTCCAGTACGGCAACCGGACCTTCACCAAGTATCCCGACGACATCGCCGACTACTTCGTGCAGAGCTTCCCTGCCGGCTTCTTCTACGAGCGGAACCTGCGGTTCGAGGACGGCGCCATCGTGGACATCCGGAGCGACATCAGCCTGGAGGACGACAAGTTCCACTACAAGGTGGAGTACCGCGGCAACGGCTTCCCTAGCAACGGCCCTGTGATGCAGAAGGCCATCCTGGGCATGGAGCCCAGCTTCGAGGTGGTGTACATGAACAGCGGCGTGCTGGTGGGCGAGGTGGACCTGGTGTACAAGCTGGAGAGCGGCAACTACTACAGCTGCCACATGAAGACCTTCTACCGGAGCAAGGGCGGCGTGAAGGAGTTCCCTGAGTACCTATTCATCCACCACCGGCTGGAGAAGAACTACGTGGAGGAGGGCAGCTTCGTGGAGCAGCACGAGACCGCCATCGCCCAGCTGACCACCATCGGCAAGCCTCTGGGCAGCCTGCACGAGTGGGTGTAAAGCGGCCGC
- toxicity to host cells [1]: does not have toxic effects on the host cells
- number and brightness of expressing cells compared with wild type PtFP DNA (visual observation) [2]: more hPtFP expressing cells and brighter cells than the wild type
- fluorescent signal compared with wild type Ptilosarcus gurneyi green fluorescent protein ([2]; identical amount of DNA, forty hours post-transfection, intensity in nuclear area (FIG. 3)): stronger fluorescent signals than the wild type

B2: hPtFP: full length humanized Ptilosarcus gurneyi green fluorescent protein, 239 amino acid residues, valine added at position 2 (protein)
chain: MVNRNVLKNTGLKEIMSAKASVEGIVNNHVFSMEGFGKGNVLFGNQLMQIRVTKGGPLPFAFDIVSIAFQYGNRTFTKYPDDIADYFVQSFPAGFFYERNLRFEDGAIVDIRSDISLEDDKFHYKVEYRGNGFPSNGPVMQKAILGMEPSFEVVYMNSGVLVGEVDLVYKLESGNYYSCHMKTFYRSKGGVKEFPEYHFIHHRLEKTYVEEGSFVEQHETAIAQLTTIGKPLGSLHEWV
- absorption and emission spectra compared with wildtype Ptilosarcus gurneyi [3]: unchanged
- percentage of positive cells during cell passage ([1]; HEK293 mixed population, about 30% expressing hPtFP, 2, 4 or 6 days incubation, no selection (FIG. 5)): did not change
- toxicity to host cells [1]: not toxic to the cells
